Reference: the nanobody polyreactivity screen of Harvey et al. (2022)

Assay: yeast display, Sf9 membrane polyspecificity reagent, FACS + sequencing; frameworks hold sequencing errors
Procedure, shortened: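 Genes from sorted yeast were amplified by colony PCR, read by MiSeq 2 × 250 sequencing and filtered on CDR length. These cells carried a synthetic nanobody library in Saccharomyces cerevisiae BJ5465 and were sorted by FACS into low and high (top ~1%) gates on anti-HA and streptavidin fluorescence. Polyreactivity is labelled according to the gate of origin.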

Sequence	polyreactivity (PSR sort gate)
QVQLVESGGGLVQAGGSLRLSCAASGTTFYHNVMGWYRQAPGKERELVASIDTGDSTNYADSVKGRFTISRDNAKNTVYLQMNSLKPEDTAVYYCNADSYPALNKRGYDYWGQGTQVTVSS	low polyreactivity
QVQLVESGGGLVQAGGSLRLSCSASGRTFRSYTMGWYRQAPGKERELVAAINRGDRTYADSVKGRFTISRDNAKNTVYLQMNSLKPEDTAVYYCNARYYTHRYDYWGQGTQVTVSS	high polyreactivity
QVQLVESGGGLVQAGGSLRLSWAASGSTFDSNGMGRYRQAPGKERELVATITSRGASTNYSDSVKGRFTISRDNAKNTVYLEMNSLKPEDTAVYYCNREVPWWLYKYVGHDYWGQGTQVTVSS	low polyreactivity
QVQLVESGGGLVQAGGSLRLSCDASGFTFHPYTMGWYRQAPGKERELVASISWGGGSTYYADSVKGRFTISRDNAKNTVYLQMKSLNPEDTAVYYCAKDITYIYYYWGQGSQVTVSS	low polyreactivity
QVQLVESGGGLVQAGGSLRLSCAASGIIFRPYAMGWYRQAPGKEREMVAAITWSGTSTYYADSVKGRFTISRDNAKNTVYLQMNSLKPEDTAVYYCAATWSYGVSWYEYWGQGTQVTVSS	high polyreactivity
QVQLVESGGGLVQAGGSLRLSCAASGRTFGPYAMGWYRQAPGKERELVAAITDTGSGTYYADSVKGRFTISRDNAKNTVYIQMNSLKPEDTAVFYCNANYLSWYRYKYNYWGQGTQVTVSS	low polyreactivity
QVHLVESGGGLVQAGGSLRLSCAASGFTFSSNAMGWYRQAPGKERELVAAIRSGGTTKYADSVKGRFTISRDNAKNTLYLQMNSLKPEDTAVYYCAARIRDLAGYYYWGQGTQVTVSS	high polyreactivity
QVQLVESGGGLVQAGGSLRLSCAASGTIFKSNSMGWYRQAPGKERELVAAISNGGITNYADSVKGRFTISRDNAKNTVYLQMNSLKPEDTAVYYCATSDVREIWVDYWGQGTQVTVSS	low polyreactivity
QVQLVESGGGLVQAGGSLRLSCAASGSIFVYNAMGWYRQAPGKEREFVAAITKRVGRTYYADSVKGRFTISRDNAKNTVYLQMNSLKPEDTAVYYCAAVLSYTGGFDYWGQGTQVTVSS	high polyreactivity
QVQLVESGGGLDQAGGSLRLSCAASGRTFKWNAIGWYRQAHGKERELVASITSGGSTNYADSVKGRFTISRDNAKNTVYLQMNSLKPEDTAVYYCNAEYYLFKRPYSYYYWGQGTQVTVSS	low polyreactivity
QVQLVESGGGLLQAGGSLRLSCAASGIFGRYAMGWYRQAPGKERELVAGISWSGVRTYYADSVKGRFTISRDNAKNTVYLQINSLKPEDTSVYYCPARPWNDGYYVGRFHMDYWGQGTQVTVSS	low polyreactivity
QVQLVESGGGLVQAGGSLRLSCAASGLTFAYYAMGWYRQPPGKERELVAAITSGDGTNYADSVKGRFTISRDNAKNTVYLQMNSLKPEDTAVYYCATDTWSPGYDYWGQGTQVTVSS	low polyreactivity
QVQHVESRGGLVQAGGSLRLSCAASGFTFYLNAKGWYRQAPGKVRELVAAISYSDGSTYYADSVKGRFTISRDNAKNTVYLQMNSLIPEDTAVYYCAADTTDPGGAYQLMEYWGQGTQVTVSS	high polyreactivity
QVQLVESGGGLVQAGGSLRLSCAASGFTFSLYDMGWYRQAPGKERELVADINGSGGSTYYSDSVKGRFTISRDNAKYTVYFQMNSLKPEDTAVYYCAAGPPSRWWYFVDYGYWGQGTQVTVSS	high polyreactivity
QVQLVESGGGLVQAGGSLRLSCAASGRILQYNVMGWYRQAPGKERELVATISSGGTTNYADSVKGRFTISRDNAKNTVYLQMNSLKPEDTAVYYCAAGLPRKRVQYDYWGQGTQVTVSS	low polyreactivity
QVQLVESGGGLVQAGGRLRLSCAAYGSIFMYYAMGWYRQSPVKERELVAAITRGGSTYYADSVKGRFTISRDNAKNTVYLQMNSLKPEDTAVYYCAATTFRSVGYDYWGQGTQVTVSS	low polyreactivity
QVQLVESGGGLVQAGGSLRLRCAASGITFSRNAMGAYRQAPGKERELVATITSGGSTNYADSVKGRFTISRDNAKNTVYLQMNSLKPEDTAVYYCNADWNTFISGRSYDYWGQGTQVTVSS	low polyreactivity
QVQLVESGGGLVQAGGSLRLSCAASGITFYGNAMGWYRQAPGKERELVANTYYADSVKGRFTISRDNAKNTVYLQMNSLKPEDTAVYYCNVLFADKSDYWGQGTQVTVSS	low polyreactivity
QVQLVESGGGLVQAGGSLRLSCAASGSIFLLYAMGWYSQAPGKVRELVAAISRSGDSTHYADSVKGRFTISRDNAKNTVYLQMNSLKPEDTAVYYCAADGYDPYGGLYDYWGQGTQVTVSS	low polyreactivity
QVQLVESGGGLVQAGGSLRLSSAASGITFVWNAMGWYRQAPGKERELVATISRGGVRTYYADSVKGRFTISRDNAKNTVYLQMNSLKQEDTAVYYCAADGSYVHWEYGYWGQGTQVTVSS	low polyreactivity
QVQLVESGGGLVQAGGSLRLSCAASGFTFLGYVMGWYRQAPGKEREFVADITESGGRTYYADSVKGRFTISRDNAKNTVYLQMNSLKPEDTAVYYCAAELSYWGYYYSFDYWGQVTQVTVSS	low polyreactivity
QVQLVESGGGLVQAGGSLRLSCAASGSTFSGNTMGWYRQAPGKERELVADINWSSGSTYYADSVKGRFTISRDNAKNTVYLQMNSLKPEDTAVYYCAAVEPFYDFDYWGQGTQVTVSS	low polyreactivity

Sequence	polyreactivity (PSR sort gate)
QVQLVESGGGLVQAGGSLRLSCAASGYTFSWYAMGWYRQAPRKERELVAGIDTSGGSTYYADSVKGRFTISRDNAKNTVYLQMNSLKPEDTAVYYCAAGLLWYSWGFWYYEYGYWGQGTQVTVSS	low polyreactivity
QVQLVESGGGLVQAGGSLRLSCAASGFTFGGYAMGWYRQAPGKERELVAAINWSGGSTDYADSVKGRFTISRDIAKNTVYLQMNSLKPEDTAVYYCAAEGQDGRFYWGQGTQVTVSS	low polyreactivity
QVQLVASRGGLVQAGGILRLSSAASGSTFPSYEMGWYRQARGKERELVAAINSGRGSNYADSVKGRFTISRDNAKNTVYLQMNCLIPDDTAVYYCGISRYDYTNTEGGYWGQGTQVTVSS	low polyreactivity
QVQLVESGGGLVQAGGSLRLSCAASGFTFRRYAMGWYRQAPGKERELVAAISIRGGRTYYADSVKGRFTISRDNAKNTVYLQMNSLKPEVTAVYYCAAAPVGYGKRFYYWGQGTQVTVSS	high polyreactivity
QVQLVESGGGLVQAGGSLRLSCAASGRIFAYYAMGWYRQAPGKERELVATITDSGDDTYYADSVKGRFTISRDNAKNTVYLQMNSLKPEDTAVYYCNAVWRGWYPYWYDYWGQGTQVTVSS	low polyreactivity
QVQLVESGGGLVQAGGSLRLSCAASGRTFGAYAMGWYRQAPGTERELVAAISSSGGSTYYADSVKGRFTISRDNAKNTVYLQMNSLKPEDTAVYYCAKGWHRGVGFGYWGQGTQVTVSS	high polyreactivity
QVQLVESGGGIVQAGGSLRLSCAASGSIFEPNAMGWYRQAPGQEREFVAAISGSGGSTYYADSVKGRFTSSRDNAKNTVYLQRNSLKPEDTAVYYCNALYLRTTPQDYDYWGQGTQVTVSS	high polyreactivity
QVQLVESGGGLVQAGGSLRLSCAASGLTFEYNAMGWYRQAPGKERELVAAITSGDNTYYADSVKGRITISRDNAKNTVYLQMNSLKPEDTAVYYCAKYRWNWRYVSRGDSWGQGTQVTVSS	high polyreactivity
QVQLVESGGGLVQAGGSLRISCAASGSTFYPNAMGWYRPAPGTERELVAAIRGTGGSTYADSVKGRFTISRDNAKNTVYLQMNSLKPEDTAVYYCAAAGWTYRVEKYSVRLTGYDYWGQGTQVTVSS	high polyreactivity
QVQLVESVRGFDQAGVSLRLSCAASGSIFYHNAKGLYRQATVTERELVGAITSDGSTYYADSVKGRFTISRDNGKNTVYLLMNSLKPEDTAVFYCAAEYYGHRYDYLGQGTQVTVSS	low polyreactivity
QVQLVESGGGLVQAGGSLRLSCAASGRIFTPYAMGWYRKAPGKERELGAVIRDGSTYYADSVKGRFTISRDNAKNTVYLQMNRLKPEDTAVYYCAAVNYYDQYGDYYWGQGTQVTVSS	low polyreactivity
QVQLVESGGGLVQAGGSLRIICAASGSIFPYYAKGWYRQAPGKERELVARITITGGITYYADSVKGRFSISRDNAKNTVYLQMHSLKPEDTAVYYCAADRDWQYSFRHSVYVYDYDFWGQGTQVTVSS	low polyreactivity
QVQLVDSGGGLVQAGGSLLLSCAASGSTYKFYAMGWYRQAPGKERELVASITSSSGPTYYADSVKGRFTISRDNAKNTVYLQMKSLKPEDTAVYYCAKRPIRYYHLLRGNYWGQGTQVTVSS	low polyreactivity
QVQLVESGGGLVQAGGSLRLSCAASGRTFGYYAMGWYRQAPGKERELVAAISSRSSTTYYADSVKGRFTISRDNAKNTVYLQMNSLKTEDNAVYYCNVAYGEWKTFDYWGQGTQVTVSS	high polyreactivity
QVQLVESGGGLVQAGGSLRLSCAASGRTFTSYAIGWYRQAPGKERELVAAISGSGSRTKYADSVKGRFTISRDNAKNTVYLQMNSLKPEDTAVYYCNADYRHRHDYWGQGTQVTVSS	high polyreactivity
QVQLVESGAGLVQAGGSLRLSCAPSGSTFGDNAMGWYRQAPGKERELVAAISSGGGSTYYADSVKGRFTISRDNAKNTVYLQMNSLKPEDTAVYYCAADGTLTLYRYILDYWGQGTQVTVSS	low polyreactivity
QVQQVESGGGLVQAGGSLRLSCAASGFIFFGYAMGWYRQARGKERELVAAITSGGSTYYADSVKGRFTISRDNAKNTVYLQMNSLKPEDTAVYYCAADNSGWWGTGYNYWGQGTQVTVSS	high polyreactivity
QVQLVESGGGLVQAGGSLRLSCAASGSTLYVYTMGWYRQAPGKERELVAGITRGGSTYYADSVKGRFTISRDNAKNTVYLQMNSLKPEDTAVYYCAARSSYREYYWGQGTQVTVSS	high polyreactivity
QVQLVESGGGLVQAGGSLRLSCAASGGTIVYYAMGWYREAPGKERELVAAINWSGGSTYYADSVKGRFTISRDKAKNTVYLQMNSLKPEDTAVLLLQRSGLRRSGVWFDYWGQGTQVTVSS	low polyreactivity
QVQLVESGGDLVQAGGSLRLSCAASGITFYVNTMGSYRPAPGKERELVAAIDWTDGGTYYADSVKGRFTISRDNAKNTVYLQMNSLKPEDTAVYYCAREYYWDIKGLYGYLAYDLDYWGQGSQVTVSS	low polyreactivity
QVQLVESGGGLVQAGGSLRLSCAASGSILGNYAMGWYRQAPGKEREVVAAISSSGRTSYADSVKGRFTISRDNAKNTVYLQMNSLKPEDTAVYYCNASNYIVLINDPDAAPWLYDYWGQGTQVTVSS	low polyreactivity
